Measured values as given in US20200315149.

Tests used:
cathepsin K-cleaved FXII = cathepsin K-cleaved FXII (UniProt P00748)
[1] = molecular target: full-length coagulation factor XII purified from human plasma (UniProt P00748)
[2] = molecular target: recombinant human pro-HGF (UniProt P14210)
Chain of recombinant human pro-HGF (P14210 32-728): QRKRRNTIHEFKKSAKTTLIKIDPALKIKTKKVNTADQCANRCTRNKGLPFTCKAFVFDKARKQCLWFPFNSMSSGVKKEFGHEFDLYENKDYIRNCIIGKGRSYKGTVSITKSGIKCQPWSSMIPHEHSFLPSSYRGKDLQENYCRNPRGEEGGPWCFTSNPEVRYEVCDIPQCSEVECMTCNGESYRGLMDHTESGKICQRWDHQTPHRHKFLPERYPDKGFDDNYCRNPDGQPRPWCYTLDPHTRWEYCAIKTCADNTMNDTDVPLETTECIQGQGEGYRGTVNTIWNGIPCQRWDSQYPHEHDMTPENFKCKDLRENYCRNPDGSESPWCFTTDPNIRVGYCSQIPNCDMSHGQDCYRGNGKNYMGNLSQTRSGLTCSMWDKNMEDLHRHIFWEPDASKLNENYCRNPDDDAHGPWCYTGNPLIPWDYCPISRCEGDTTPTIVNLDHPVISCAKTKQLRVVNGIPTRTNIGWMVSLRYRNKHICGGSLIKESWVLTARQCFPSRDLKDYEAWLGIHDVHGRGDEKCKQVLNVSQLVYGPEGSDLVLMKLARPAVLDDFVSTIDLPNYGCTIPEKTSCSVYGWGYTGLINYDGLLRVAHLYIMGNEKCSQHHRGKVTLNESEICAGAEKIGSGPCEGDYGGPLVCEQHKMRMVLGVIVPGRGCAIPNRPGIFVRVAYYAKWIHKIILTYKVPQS

Chain of plasma kallikrein (chain, as listed by the source): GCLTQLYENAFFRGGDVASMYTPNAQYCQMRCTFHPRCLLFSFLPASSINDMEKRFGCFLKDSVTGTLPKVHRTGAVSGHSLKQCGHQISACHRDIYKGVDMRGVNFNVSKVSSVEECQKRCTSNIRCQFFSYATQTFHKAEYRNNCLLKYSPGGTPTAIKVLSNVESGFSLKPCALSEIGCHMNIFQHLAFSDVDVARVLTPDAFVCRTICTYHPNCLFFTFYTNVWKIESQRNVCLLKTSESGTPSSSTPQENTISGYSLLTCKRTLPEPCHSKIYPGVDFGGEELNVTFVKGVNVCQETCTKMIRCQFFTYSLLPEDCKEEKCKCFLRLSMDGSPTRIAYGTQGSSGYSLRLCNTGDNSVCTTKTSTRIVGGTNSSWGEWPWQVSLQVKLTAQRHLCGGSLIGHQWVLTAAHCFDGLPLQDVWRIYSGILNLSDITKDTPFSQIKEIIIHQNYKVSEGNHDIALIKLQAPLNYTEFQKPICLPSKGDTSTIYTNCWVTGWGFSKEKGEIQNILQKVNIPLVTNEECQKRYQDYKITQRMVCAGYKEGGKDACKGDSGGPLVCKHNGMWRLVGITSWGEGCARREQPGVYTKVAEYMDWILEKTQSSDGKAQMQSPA
Chain of full-length coagulation factor XII purified from human plasma (P00748 20-615): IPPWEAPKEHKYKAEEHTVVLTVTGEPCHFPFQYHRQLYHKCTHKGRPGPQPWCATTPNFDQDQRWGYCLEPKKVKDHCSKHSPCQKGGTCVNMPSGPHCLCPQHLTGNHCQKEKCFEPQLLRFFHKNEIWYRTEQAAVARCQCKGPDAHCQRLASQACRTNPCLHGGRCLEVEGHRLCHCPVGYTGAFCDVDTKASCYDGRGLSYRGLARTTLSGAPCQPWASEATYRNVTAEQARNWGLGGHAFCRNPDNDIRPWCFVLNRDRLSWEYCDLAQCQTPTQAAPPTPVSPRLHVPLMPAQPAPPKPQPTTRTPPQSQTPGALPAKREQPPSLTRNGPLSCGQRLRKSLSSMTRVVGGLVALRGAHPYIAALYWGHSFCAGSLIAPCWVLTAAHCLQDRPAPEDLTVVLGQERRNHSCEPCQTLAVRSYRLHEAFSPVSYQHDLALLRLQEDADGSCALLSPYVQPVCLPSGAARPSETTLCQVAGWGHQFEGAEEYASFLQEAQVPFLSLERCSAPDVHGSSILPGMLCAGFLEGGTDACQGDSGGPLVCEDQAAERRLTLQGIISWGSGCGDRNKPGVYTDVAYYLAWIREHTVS
Chain of cathepsin K-cleaved FXII (P00748 20-615): as above

Row | Substance | FXIIa activity on chromogenic substrate S-2302 after incubation with plasma kallikrein (15 nM, 15 min) (cathepsin K-cleaved FXII) | FXIIa activity on chromogenic substrate S-2302 after incubation with plasma kallikrein (15 nM, 15 min) [1] | cleavage of pro-HGF, western blot [2]
1 | plasma kallikrein | cathepsin K-cleaved FXII had dramatically increased activity compared to full-length FXII when incubated with plasma kallikrein | Cathepsin-cleaved FXII incubated with kallikrein (15 nM) had much higher activity than full length FXII incubated with kallikrein | 
2 | thrombin |  |  | other serine proteases found in the brain such as thrombin and tissue plasminogen activator did not convert pro-HGF to HGF
